Assay results published in US20250090663A1.

Columns and labels:
Cyno GPC3.hFc = test: SPR (Carterra)
Human GPC3.hFc = test: SPR (Carterra)

Kd (Cyno GPC3.hFc): 2.46 nM
Kd (Human GPC3.hFc): 2.63 nM
Substance: HGC33 scFv
